This is an account of results in patent US9284541B2, “Methods and compositions for protein labeling using lipoic acid ligases” (Massachusetts Institute of Technology, priority 2007, dated 2016).

The test system of one series is LAP-YFP fusion protein. Kind of series: Orthogonal resorufin and 7-hydroxycoumarin labeling in living HEK 293T cells. The settings on record: 5 μM resorufin-AM2 and 20 μM 7-hydrozycoumarin-AM2, 10 minutes.
Series [1] has as its system LAP peptide (sequence=GFEIDKVWYDLDA). The settings on record: 1 μM ligase, 200 μM LAP peptide, 500 μM resorufin-AM2, 30° C., 1 hour. Here is the method: These DNA fragments were cloned into expression vectors and expressed in E. coli cells. The ligase activity of the LplA mutants thus prepared in catalyzing formation of resorufin-LAP conjugate was tested as described below. 1 μM Lipoic acid ligase, 200 μM, LAP peptide (sequence=[…]), ligase, 500 μM resorufin-AM2, 2 mM ATP, and 5 mM magnesium acetate were mixed in an Eppendorf tube and incubated at 30° C. for 1 hour. Components in the mixture were analyzed by C18 HPLC and tandem ESI-MS, using 15%→40% acetonitrile linear gradient over 8 minutes containing 0.1% formic acid to resolve resorufin, LAP, and resorufin-LAP conjugate. A mixtures omitting ATP or the lipoic acid ligase was used as a negative control.

In series [2] the target is T1, LAP2 (Escherichia coli, UniProt P32099, W38V). The conditions noted are these: cited from earlier work.
The target of series [3] is T1, LAP2. The conditions noted are these: coumarin ligation.
Series [4] has as its system FKBP-LAP1 and FRB-LplAW37V. The settings on record: FRB fusions, ID-PRIME labeling of FKBP-LAP1.
Method: Growth media was then removed and the cells were labeled by applying 20 μM coumarin-AM2 in serum-free DMEM at 37° C. for 10 minutes. Excess coumarin was washed out with three changes of fresh DMEM over 60 minutes at 37° C. Cells were imaged in DPBS. Confocal images were acquired at 60× magnification.
In the next series the target is FKBP-LAP1 (Escherichia coli, UniProt P32099, W38V).

Method for LAP-YFP fusion protein: After being rinsed with DPBS or HBSS, the transfected cells were incubated with 5 μM resorufin-AM2 and 20 μM 7-hydrozycoumarin-AM2 at 37° C. for 10 minutes.
The cells were washed with the culture medium, cultured at 37° C. for 30 minutes, and observed under a fluorescent microscope.

B1: W37V: E. coli LplA single mutant W37V, coumarin ligase (protein)
chain: STLRLLISDSYDPWFNLAVEECIFRQMPATQRVLFLVRNADTVVIGRAQNPWKECNTRRMEEDNVRLARRSSGGGAVFHDLGNTCFTFMAGKPEYDKTISTSIVLNALNALGVSAEASGRNDLVVKTVEGDRKVSGSAYRETKDRGFHHGTLLLNADLSRLANYLNPDKKKLAAKGITSVRSRVTNLTELLPGITHEQVCEAITEAFFAHYGERVEAEIISPNKTPDLPNFAETFARQSSWEWNFGQAPAFSHLLDERFTWGGVELHFDVEKGHITRAQVFTDSLNPAPLEALAGRLQGCLYRADMLQQECEALLVDFPEQEKELRELSAWMAGAVR
modifications: E. coli
One may read the Km as the concentration of substrate that gives half-maximal velocity. Take B1: the “substrate specificity in cells” value in the series on LAP-YFP fusion protein is “only catalyzes conjugate of 7-hydroxycoumarin”. Also, in series [1], the “Yield of resorufin-LAP conjugate” value is less than 5%. For the same molecule, in the series with LAP2 [2], the “reported kcat for coumarin ligation to LAP2” value was 1.14 min⁻¹. The Kcat for coumarin with LAP2 [3] came out at 0.019 s⁻¹. In series [4], the “background versus expression level” value was “increased with expression level”. The “catalytic rate slower than lipoic acid ligation” value with FKBP-LAP1 is on record as 22 times. Besides, the “kcat for coumarin ligation to LAP1” value with FKBP-LAP1 (purified FKBP-LAP1) worked out at 0.60 ± 0.06 min⁻¹. Also, the Km with FKBP-LAP1 (read-out: Km of the enzyme for LAP1, coumarin probe, purified FKBP-LAP1) turned out to be 681 ± 168 µM.
